Data as given in paper PMC11059514 (Molecular Metabolism, 2024).

Biological target: T1, PPARα bait (pCLG-PPARα), full-length PPARα fused to a mutant leptin receptor (UniProt Q07869 1-468)
T1 sequence: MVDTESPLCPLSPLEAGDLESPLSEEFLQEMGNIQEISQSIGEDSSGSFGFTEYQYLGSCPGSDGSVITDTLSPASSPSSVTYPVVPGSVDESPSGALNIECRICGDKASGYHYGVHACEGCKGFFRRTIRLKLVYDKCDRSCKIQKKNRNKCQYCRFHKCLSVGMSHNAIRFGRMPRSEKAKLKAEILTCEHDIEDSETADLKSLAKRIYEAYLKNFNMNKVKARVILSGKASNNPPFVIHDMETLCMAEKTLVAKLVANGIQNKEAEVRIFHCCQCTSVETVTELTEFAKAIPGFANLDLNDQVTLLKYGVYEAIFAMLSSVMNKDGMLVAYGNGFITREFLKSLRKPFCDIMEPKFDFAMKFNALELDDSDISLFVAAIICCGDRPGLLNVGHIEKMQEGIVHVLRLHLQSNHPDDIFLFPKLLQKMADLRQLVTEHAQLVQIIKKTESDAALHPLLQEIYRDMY
Assay: two-hybrid

fold increase of the MAPPIT signal on serum starvation: ~3 fold
B1: ERRα prey (pMG1-ERRα), full-size ERRα ORF coupled to gp130 (natural protein)
chain: MSSQVVGIEPLYIKAEPASPDSPKGSSETETEPPVALAPGPAPTRCLPGHKEEEDGEGAGPGEQGGGKLVLSSLPKRLCLVCGDVASGYHYGVASCEACKAFFKRTIQGSIEYSCPASNECEITKRRRKACQACRFTKCLRVGMLKEGVRLDRVRGGRQKYKRRPEVDPLPFPGPFPAGPLAVAGGPRKTAAPVNALVSHLLVVEPEKLYAMPDPAGPDGHLPAVATLCDLFDREIVVTISWAKSIPGFSSLSLSDQMSVLQSVWMEVLVLGVAQRSLPLQDELAFAEDLVLDEEGARAAGLGELGAALLQLVRRLQALRLEREEYVLLKALALANSDSVHIEDAEAVEQLREALHEALLEYEAGRAGPGGGAERRRAGRLLLTLPLLRQTAGKVLAHFYGVKLEGKVPMHKLFLEMLEAMMD
